Results on two molecules are retold here after patent publication US5804445, “High affinity mutants of nuclear factor-interleukin 6 and methods of use therefor” (Board of Regents, The University of Texas System).

The test system of series [1] is NF-IL6 full length (24-345). The series is described as follows: EMSA. The following applies: CITED Brasier and Kumar 1994; indistinguishable from TCD WT; cited from earlier work. For orientation: Mobility shift assays separate free from complexed probe on a gel.
The target of series [2] is NF-IL6 TCD WT (tryptic core domain, aa 266-345) (UniProt P17676). The series is described as follows: EMSA. The following applies: CITED Brasier and Kumar 1994; cited from earlier work.
NF-IL6 TCD WT (tryptic core domain, aa 266-345), sequence (P17676 other isoform, or with tags, fused parts or gaps): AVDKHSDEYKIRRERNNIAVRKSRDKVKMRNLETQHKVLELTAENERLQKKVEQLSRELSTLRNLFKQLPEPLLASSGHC
The target in series [3] is NF-IL6 TCD S271A (UniProt P17676 SEQ:2-81, S271A). The experiment in a line: EMSA; binding specificity indistinguishable from the other TCD peptides. To be noted: tags: untagged, initiator Met removed; chain copies: 2 inferred; label: 32P fill-in; BamHI/BglII overhangs.
NF-IL6 TCD S271A, sequence (P17676 other isoform, or with tags, fused parts or gaps S271A | S271A S271A): as the sequence (P17676 other isoform, or with tags, fused parts or gaps) above, with S6A counted along it
In series [4] the target is NF-IL6 TCD V267A (UniProt P17676 SEQ:2-81, V267A). Described as above. The following applies: tags: untagged, initiator Met removed; chain copies: 2 inferred; label: 32P fill-in; BamHI/BglII overhangs.
NF-IL6 TCD V267A, sequence (P17676 other isoform, or with tags, fused parts or gaps V267A | V267A V267A): as the sequence (P17676 other isoform, or with tags, fused parts or gaps) above, with V2A counted along it

On to APRE DNA (site used in cited work), for which the Kd in series [1] and in series [2] was 36 nM throughout.

B1: APRE M6 (32P) (dsDNA)
DNA 1: GATCCACCACAGTTGTGATTTCACAACCTGACCA
DNA 2: TGGTCAGGTTGTGAAATCACAACTGTGGTGGATC
Take B1: the binding result in series [3] and in series [4] was “binds” in each case.

By Kd is commonly meant the concentration at which binding is half-saturated.
